To fix the notation:
B1: S. cerevisiae Abp1 (full length; SH3 domain 535-592 mutated) / Hua2 (parent complex)
chain 1: MALEPIDYTTHSREIDAEYLKIVRGSDPDTTWLIISPNAKKEYEPESTGSSFHDFLQLFDETKVQYGLARVSPPGSDVEKIIIIGWCPDSAPLKTRASFAANFAAVANNLFKGYHVQVTARDEDDLDENELLMKISNAAGARYSIQTSSKQQGKASTPPVKKSFTPSKSPAPVSKKEPVKTPSPAPAAKISSRVNDNNDDDDWNEPELKERDFDQAPLKPNQSSYKPIGKIDLQKVIAEEKAKEDPRLVQKPTAAGSKIDPSSDIANLKNESKLKRDSEFNSFLGTTKPPSMTESSLKNDDDKVIKGFRNEKSPAQLWAERKAKQNSGNAETKAEAPKPEVPEDEPEGEPDVKDLKSKFEGLAASEKEEEEMENKFAPPPKKSEPTIISPKPFSKPQEPVKAEEAEQPKTDYKKIGNPLPGMHIEADNEEEPEENDDDWDDDEDEAAQPPLPSRNVASGAPVQKEEPEQEEIAPSLPSRNSIPAPKQEEAPEQAPEEEIEEEAEEAAPQLPSRSSAAPPPPPRRATPEKKPKENPWATAEYDYDAAEDNELTFVENDKIINIEFVDDDWWLGELEKDGSKGLFPSNYVSLGN
chain 2: MQQTKFGKMYLDHDSVVEYSEDEIVEADRITLGYKKRLSMIENQMRHLLEDFSLDVQQIEPILADLQKYYDAFLQLLQKRNKSLQCKRSTHQPVPSPMNSQTSTNAKVNLSGKLMKFQLNSVQKFDEENILRILQNKIEFEHYFQIDKGKKQKVLLLAVYQCLNGPTRLHKVLNIEGIIHNNSIRTILGKQVSSSKWTVFLYDVKLVLLAHRQDVPNLETSKMIVRYGDLFPCALYFKDHTAY

The variants in this experiment derive from B1. Kind of experiment: DHFR protein-fragment complementation in yeast (Abp1-DHFR F[1,2] x partner-DHFR F[3]), deep mutational scanning, second methotrexate selection vs reference; S. cerevisiae, DHFR-PCA selection in liquid with methotrexate at 30 C, two 72 h selections (the score uses the second); reference = the pre-selection culture.
As to chain 1 E575D, the screen value was -0.0843 DMS score: mean over two replicates of log2(f_test/f_ref + 0.5)/ln 2, minus the synonymous-codon median (not a log2 ….

Take chain 1 E575K: the screen value was 0.0377 DMS score: mean over two replicates of log2(f_test/f_ref + 0.5)/ln 2, minus the synonymous-codon median (not a log2 ….

In the case of chain 1 E575H, the screen value is 0.233 DMS score: mean over two replicates of log2(f_test/f_ref + 0.5)/ln 2, minus the synonymous-codon median (not a log2 ….

For chain 1 A545G, the screen value is -0.421 DMS score: mean over two replicates of log2(f_test/f_ref + 0.5)/ln 2, minus the synonymous-codon median (not a log2 ….

On to chain 1 Y587L, for which the screen value was 1.47 DMS score: mean over two replicates of log2(f_test/f_ref + 0.5)/ln 2, minus the synonymous-codon median (not a log2 ….

chain 1 Y587S: the screen value was -2.24 DMS score: mean over two replicates of log2(f_test/f_ref + 0.5)/ln 2, minus the synonymous-codon median (not a log2 ….

As to chain 1 Y587K, the screen value is -2.96 DMS score: mean over two replicates of log2(f_test/f_ref + 0.5)/ln 2, minus the synonymous-codon median (not a log2 ….

Regarding chain 1 Y587C, the screen value was -1.01 DMS score: mean over two replicates of log2(f_test/f_ref + 0.5)/ln 2, minus the synonymous-codon median (not a log2 ….

With chain 1 Y587T, the screen value was -2.4 DMS score: mean over two replicates of log2(f_test/f_ref + 0.5)/ln 2, minus the synonymous-codon median (not a log2 ….

On to chain 1 E563Q, for which the screen value was -0.159 DMS score: mean over two replicates of log2(f_test/f_ref + 0.5)/ln 2, minus the synonymous-codon median (not a log2 ….

Regarding chain 1 E563S, the screen value was -0.411 DMS score: mean over two replicates of log2(f_test/f_ref + 0.5)/ln 2, minus the synonymous-codon median (not a log2 ….

Consider chain 1 E563K, for which the screen value is -0.922 DMS score: mean over two replicates of log2(f_test/f_ref + 0.5)/ln 2, minus the synonymous-codon median (not a log2 ….

With chain 1 E563H, the screen value is -1.36 DMS score: mean over two replicates of log2(f_test/f_ref + 0.5)/ln 2, minus the synonymous-codon median (not a log2 ….

As to chain 1 L574C, the screen value is -0.496 DMS score: mean over two replicates of log2(f_test/f_ref + 0.5)/ln 2, minus the synonymous-codon median (not a log2 ….

As for chain 1 L574I, the screen value is -0.989 DMS score: mean over two replicates of log2(f_test/f_ref + 0.5)/ln 2, minus the synonymous-codon median (not a log2 ….

In the case of chain 1 L574T, the screen value was -0.934 DMS score: mean over two replicates of log2(f_test/f_ref + 0.5)/ln 2, minus the synonymous-codon median (not a log2 ….

As for chain 1 D567Q, the screen value was -2.97 DMS score: mean over two replicates of log2(f_test/f_ref + 0.5)/ln 2, minus the synonymous-codon median (not a log2 ….

Regarding chain 1 D567H, the screen value is -2.08 DMS score: mean over two replicates of log2(f_test/f_ref + 0.5)/ln 2, minus the synonymous-codon median (not a log2 ….

For the variant chain 1 N549M, the screen value is 1.68 DMS score: mean over two replicates of log2(f_test/f_ref + 0.5)/ln 2, minus the synonymous-codon median (not a log2 ….

With chain 1 N549F, the screen value was 0.0612 DMS score: mean over two replicates of log2(f_test/f_ref + 0.5)/ln 2, minus the synonymous-codon median (not a log2 ….

Consider chain 1 N549T, for which the screen value was 1.38 DMS score: mean over two replicates of log2(f_test/f_ref + 0.5)/ln 2, minus the synonymous-codon median (not a log2 ….

As for chain 1 N549P, the screen value was -0.774 DMS score: mean over two replicates of log2(f_test/f_ref + 0.5)/ln 2, minus the synonymous-codon median (not a log2 ….

Consider chain 1 N549W, for which the screen value is -2.49 DMS score: mean over two replicates of log2(f_test/f_ref + 0.5)/ln 2, minus the synonymous-codon median (not a log2 ….

As for chain 1 S579M, the screen value was -0.58 DMS score: mean over two replicates of log2(f_test/f_ref + 0.5)/ln 2, minus the synonymous-codon median (not a log2 ….

Turning to chain 1 S579T, the screen value is 0.556 DMS score: mean over two replicates of log2(f_test/f_ref + 0.5)/ln 2, minus the synonymous-codon median (not a log2 ….

With chain 1 S579L, the screen value is -0.943 DMS score: mean over two replicates of log2(f_test/f_ref + 0.5)/ln 2, minus the synonymous-codon median (not a log2 ….

Take chain 1 S579E: the screen value is -0.235 DMS score: mean over two replicates of log2(f_test/f_ref + 0.5)/ln 2, minus the synonymous-codon median (not a log2 ….

As to chain 1 F564Y, the screen value was 0.127 DMS score: mean over two replicates of log2(f_test/f_ref + 0.5)/ln 2, minus the synonymous-codon median (not a log2 ….

As for chain 1 D542H, the screen value was -0.15 DMS score: mean over two replicates of log2(f_test/f_ref + 0.5)/ln 2, minus the synonymous-codon median (not a log2 ….

Turning to chain 1 D542R, the screen value is -0.244 DMS score: mean over two replicates of log2(f_test/f_ref + 0.5)/ln 2, minus the synonymous-codon median (not a log2 ….

chain 1 D542T: the screen value was 0.719 DMS score: mean over two replicates of log2(f_test/f_ref + 0.5)/ln 2, minus the synonymous-codon median (not a log2 ….

Regarding chain 1 L582F, the screen value is 0.039 DMS score: mean over two replicates of log2(f_test/f_ref + 0.5)/ln 2, minus the synonymous-codon median (not a log2 ….

Consider chain 1 L582M, for which the screen value was -2.34 DMS score: mean over two replicates of log2(f_test/f_ref + 0.5)/ln 2, minus the synonymous-codon median (not a log2 ….

For the variant chain 1 D548P, the screen value is 1.53 DMS score: mean over two replicates of log2(f_test/f_ref + 0.5)/ln 2, minus the synonymous-codon median (not a log2 ….

With chain 1 D548H, the screen value was 0.00293 DMS score: mean over two replicates of log2(f_test/f_ref + 0.5)/ln 2, minus the synonymous-codon median (not a log2 ….

Take chain 1 D548Q: the screen value is 0.195 DMS score: mean over two replicates of log2(f_test/f_ref + 0.5)/ln 2, minus the synonymous-codon median (not a log2 ….

In the case of chain 1 D548C, the screen value is 0.141 DMS score: mean over two replicates of log2(f_test/f_ref + 0.5)/ln 2, minus the synonymous-codon median (not a log2 ….

As for chain 1 D548G, the screen value is -0.301 DMS score: mean over two replicates of log2(f_test/f_ref + 0.5)/ln 2, minus the synonymous-codon median (not a log2 ….

As to chain 1 D548W, the screen value was -0.639 DMS score: mean over two replicates of log2(f_test/f_ref + 0.5)/ln 2, minus the synonymous-codon median (not a log2 ….

For chain 1 D544C, the screen value is 1.15 DMS score: mean over two replicates of log2(f_test/f_ref + 0.5)/ln 2, minus the synonymous-codon median (not a log2 ….

On to chain 1 D544R, for which the screen value was 0.711 DMS score: mean over two replicates of log2(f_test/f_ref + 0.5)/ln 2, minus the synonymous-codon median (not a log2 ….

For chain 1 D544S, the screen value was 0.42 DMS score: mean over two replicates of log2(f_test/f_ref + 0.5)/ln 2, minus the synonymous-codon median (not a log2 ….

For chain 1 D577S, the screen value was 0.3 DMS score: mean over two replicates of log2(f_test/f_ref + 0.5)/ln 2, minus the synonymous-codon median (not a log2 ….

Regarding chain 1 D577C, the screen value is -0.926 DMS score: mean over two replicates of log2(f_test/f_ref + 0.5)/ln 2, minus the synonymous-codon median (not a log2 ….

As to chain 1 D577T, the screen value is -0.226 DMS score: mean over two replicates of log2(f_test/f_ref + 0.5)/ln 2, minus the synonymous-codon median (not a log2 ….

As for chain 1 A537C, the screen value is 0.422 DMS score: mean over two replicates of log2(f_test/f_ref + 0.5)/ln 2, minus the synonymous-codon median (not a log2 ….

In the case of chain 1 T552N, the screen value is -0.374 DMS score: mean over two replicates of log2(f_test/f_ref + 0.5)/ln 2, minus the synonymous-codon median (not a log2 ….

Turning to chain 1 T552D, the screen value was -0.688 DMS score: mean over two replicates of log2(f_test/f_ref + 0.5)/ln 2, minus the synonymous-codon median (not a log2 ….

Turning to chain 1 T552H, the screen value was -1.03 DMS score: mean over two replicates of log2(f_test/f_ref + 0.5)/ln 2, minus the synonymous-codon median (not a log2 ….

Consider chain 1 T552S, for which the screen value was 0.616 DMS score: mean over two replicates of log2(f_test/f_ref + 0.5)/ln 2, minus the synonymous-codon median (not a log2 ….

On to chain 1 T552G, for which the screen value was -0.255 DMS score: mean over two replicates of log2(f_test/f_ref + 0.5)/ln 2, minus the synonymous-codon median (not a log2 ….

chain 1 K558M: the screen value is -0.491 DMS score: mean over two replicates of log2(f_test/f_ref + 0.5)/ln 2, minus the synonymous-codon median (not a log2 ….

Turning to chain 1 K558R, the screen value was 0.719 DMS score: mean over two replicates of log2(f_test/f_ref + 0.5)/ln 2, minus the synonymous-codon median (not a log2 ….

Regarding chain 1 K558A, the screen value is -0.817 DMS score: mean over two replicates of log2(f_test/f_ref + 0.5)/ln 2, minus the synonymous-codon median (not a log2 ….

chain 1 K558V: the screen value is 0.774 DMS score: mean over two replicates of log2(f_test/f_ref + 0.5)/ln 2, minus the synonymous-codon median (not a log2 ….

As to chain 1 E555T, the screen value is 0.557 DMS score: mean over two replicates of log2(f_test/f_ref + 0.5)/ln 2, minus the synonymous-codon median (not a log2 ….

On to chain 1 E555L, for which the screen value is -0.165 DMS score: mean over two replicates of log2(f_test/f_ref + 0.5)/ln 2, minus the synonymous-codon median (not a log2 ….

On to chain 1 E555C, for which the screen value was -0.0642 DMS score: mean over two replicates of log2(f_test/f_ref + 0.5)/ln 2, minus the synonymous-codon median (not a log2 ….

On to chain 1 E555K, for which the screen value was 0.347 DMS score: mean over two replicates of log2(f_test/f_ref + 0.5)/ln 2, minus the synonymous-codon median (not a log2 ….

Turning to chain 1 E555V, the screen value was -0.0654 DMS score: mean over two replicates of log2(f_test/f_ref + 0.5)/ln 2, minus the synonymous-codon median (not a log2 ….

For chain 1 W536E, the screen value was -0.841 DMS score: mean over two replicates of log2(f_test/f_ref + 0.5)/ln 2, minus the synonymous-codon median (not a log2 ….

On to chain 1 W536H, for which the screen value is -0.883 DMS score: mean over two replicates of log2(f_test/f_ref + 0.5)/ln 2, minus the synonymous-codon median (not a log2 ….

chain 1 A539V: the screen value was -0.172 DMS score: mean over two replicates of log2(f_test/f_ref + 0.5)/ln 2, minus the synonymous-codon median (not a log2 ….

For chain 1 D568E, the screen value was -1.5 DMS score: mean over two replicates of log2(f_test/f_ref + 0.5)/ln 2, minus the synonymous-codon median (not a log2 ….

For the variant chain 1 D568V, the screen value was -2.62 DMS score: mean over two replicates of log2(f_test/f_ref + 0.5)/ln 2, minus the synonymous-codon median (not a log2 ….

For chain 1 D568W, the screen value is -2.95 DMS score: mean over two replicates of log2(f_test/f_ref + 0.5)/ln 2, minus the synonymous-codon median (not a log2 ….

Consider chain 1 N556R, for which the screen value is 0.377 DMS score: mean over two replicates of log2(f_test/f_ref + 0.5)/ln 2, minus the synonymous-codon median (not a log2 ….

Regarding chain 1 N556F, the screen value is -0.0258 DMS score: mean over two replicates of log2(f_test/f_ref + 0.5)/ln 2, minus the synonymous-codon median (not a log2 ….

For the variant chain 1 N556Q, the screen value was -0.244 DMS score: mean over two replicates of log2(f_test/f_ref + 0.5)/ln 2, minus the synonymous-codon median (not a log2 ….

As for chain 1 N556E, the screen value was -0.0705 DMS score: mean over two replicates of log2(f_test/f_ref + 0.5)/ln 2, minus the synonymous-codon median (not a log2 ….

As to chain 1 G591F, the screen value is 0.26 DMS score: mean over two replicates of log2(f_test/f_ref + 0.5)/ln 2, minus the synonymous-codon median (not a log2 ….

On to chain 1 G591L, for which the screen value is -0.124 DMS score: mean over two replicates of log2(f_test/f_ref + 0.5)/ln 2, minus the synonymous-codon median (not a log2 ….

Turning to chain 1 G591K, the screen value is 0.45 DMS score: mean over two replicates of log2(f_test/f_ref + 0.5)/ln 2, minus the synonymous-codon median (not a log2 ….

chain 1 G578M: the screen value is -0.96 DMS score: mean over two replicates of log2(f_test/f_ref + 0.5)/ln 2, minus the synonymous-codon median (not a log2 ….

Consider chain 1 G578K, for which the screen value was -0.619 DMS score: mean over two replicates of log2(f_test/f_ref + 0.5)/ln 2, minus the synonymous-codon median (not a log2 ….
